Ends that are not written are not given here. cellulose membrane = cellulose membrane support bound via the C-terminal amino acid
B1: hIAPP21-30 (peptide)
peptide: Ac-NNFGAILSST
modifications: also: C-terminal residue bound to cellulose membrane
notes: 61-88; also called decamer of the hIAPP peptide array
B2: hIAPP5-14 (peptide)
peptide: Ac-ATCATQRLAN-{cellulose membrane}
notes: as for B1
B3: hIAPP1-10 (peptide)
peptide: Ac-KCNTATCATQ
modifications: cysteine pairing not given here; also: C-terminal residue bound to cellulose membrane
notes: 61-88 (hIAPP1-10 ... hIAPP28-37); also called decamer of the hIAPP peptide array
B4: hIAPP12-21 (peptide)
peptide: Ac-LANFLVHSSN
modifications: also: C-terminal residue bound to cellulose membrane
notes: as for B1
B5: hIAPP14-23 (peptide)
peptide: Ac-NFLVHSSNNF-{cellulose membrane}
notes: as for B1
B6: hIAPP18-27 (peptide)
peptide: Ac-HSSNNFGAIL-{cellulose membrane}
notes: as for B1
B7: hIAPP4-13 (peptide)
peptide: Ac-TATCATQRLA-{cellulose membrane}
notes: as for B1
B8: hIAPP17-26 (peptide)
peptide: Ac-VHSSNNFGAI-{cellulose membrane}
notes: as for B1
B9: hIAPP15-24 (peptide)
peptide: Ac-FLVHSSNNFG-{cellulose membrane}
notes: as for B1
B10: hIAPP22-31 (peptide)
peptide: Ac-NFGAILSSTN-{cellulose membrane}
notes: as for B1
B11: hIAPP8-17 (peptide)
peptide: Ac-ATQRLANFLV
modifications: also: C-terminal residue bound to cellulose membrane
notes: as for B1
B12: hIAPP24-33 (peptide)
peptide: Ac-GAILSSTNVG-{cellulose membrane}
notes: as for B1
B13: hIAPP10-19 (peptide)
peptide: Ac-QRLANFLVHS
modifications: also: C-terminal residue bound to cellulose membrane
notes: as for B1
B14: hIAPP26-35 (peptide)
peptide: Ac-ILSSTNVGSN-{cellulose membrane}
notes: as for B1
B15: hIAPP13-22 (peptide)
peptide: Ac-ANFLVHSSNN-{cellulose membrane}
notes: as for B1
B16: hIAPP28-37 (peptide)
peptide: Ac-SSTNVGSNTY-{cellulose membrane}
notes: as for B1
B17: hIAPP11-20 (peptide)
peptide: Ac-RLANFLVHSS
modifications: also: C-terminal residue bound to cellulose membrane
notes: as for B1
B18: hIAPP7-16 (peptide)
peptide: Ac-CATQRLANFL
modifications: also: C-terminal residue bound to cellulose membrane
notes: as for B1
B19: hIAPP2-11 (peptide)
peptide: Ac-CNTATCATQR
modifications: cysteine pairing not given here; also: C-terminal residue bound to cellulose membrane
notes: as for B1
B20: hIAPP25-34 (peptide)
peptide: Ac-AILSSTNVGS-{cellulose membrane}
notes: as for B1
B21: hIAPP23-32 (peptide)
peptide: Ac-FGAILSSTNV-{cellulose membrane}
notes: as for B1
B22: hIAPP19-28 (peptide)
peptide: Ac-SSNNFGAILS
modifications: also: C-terminal residue bound to cellulose membrane
notes: as for B1
B23: hIAPP3-12 (peptide)
peptide: Ac-NTATCATQRL
modifications: also: C-terminal residue bound to cellulose membrane
notes: as for B1
B24: hIAPP6-15 (peptide)
peptide: Ac-TCATQRLANF-{cellulose membrane}
notes: as for B1
B25: hIAPP16-25 (peptide)
peptide: Ac-LVHSSNNFGA-{cellulose membrane}
notes: as for B1
B26: hIAPP9-18 (peptide)
peptide: Ac-TQRLANFLVH
modifications: also: C-terminal residue bound to cellulose membrane
notes: as for B1
B27: hIAPP27-36 (peptide)
peptide: Ac-LSSTNVGSNT-{cellulose membrane}
notes: as for B1

target: MBP (UniProt P0AEX9 27-392 = MBP); assay: hIAPP peptide array incubated with MBP alone, immunoblot
Protocol: The cellulose membrane was then washed repeatedly with 0.05% Tween 20 in TBS. […] HRP-conjugated goat anti mouse antibodies (Jackson Laboratories, USA) were used as a secondary antibody. Immunoblots were developed using the Renaissance western blot Chemiluminescence Reagent (NEN, USA) according to Manufacturer's instructions and signal was quantified using densitometry. Regeneration of the cellulose membrane for reuse was carried out by sequential washing with Regeneration buffer I including 62.5 mM Tris, 2% SDS, 100 Mm 2-mercaptoethanol, pH 6.7, and Regeneration buffer II including 8 M urea, 1% SDS, 0.1% 2-mercaptoethanol. Efficiency of the washing steps was monitored by contacting the membrane with the chemiluminescence reagent, as described.

Row | Binder | binding result
1 | B1 | no binding
2 | B2 | no binding
3 | B3 | no binding
4 | B4 | no binding
5 | B5 | no binding
6 | B6 | no binding
7 | B7 | no binding
8 | B8 | no binding
9 | B9 | no binding
10 | B10 | no binding
11 | B11 | no binding
12 | B12 | no binding
13 | B13 | no binding
14 | B14 | no binding
15 | B15 | no binding
16 | B16 | no binding
17 | B17 | no binding
18 | B18 | no binding
19 | B19 | no binding
20 | B20 | no binding
21 | B21 | no binding
22 | B22 | no binding
23 | B23 | no binding
24 | B24 | no binding
25 | B25 | no binding
26 | B26 | no binding
27 | B27 | no binding

— patent US20100022459A1 (TEL AVIV UNIVERSITY FUTURE TECHNOLOGY DEVELOPMENT L P, published 2010)
